Measured values reported in patent publication US20220315645A1.

Target: HBsAg on HBV virions (HBV from HepDE19 cell supernatant) (Hepatitis B virus)
Experiment: cell-based or functional assay

libivirumab (antibody) was tested, and the IC50, in vitro HBV neutralization on HepG2-NTCP cells (ELISA read-out) was 0.035 µg/mL and the IC50, in vitro HBV neutralization on HepG2-NTCP cells (HBcAg immunofluorescence read-out) was 0.128 µg/mL.
